Experimental data: patent US9611303B2, “Modified biotin-binding protein” (Japan Tobacco Inc., priority 2009, dated 2017)

Experiments:
[1] = Subunit association by FPLC on Sephacryl S-100HR; format: physicochemical; conditions: for Structure (identified by FPLC): Sephacryl S-100HR, 50 mM potassium phosphate, 500 mM NaCl; for Sephacryl (mL), elution peak position: tetramer 44 to 47 mL, dimer 51 to 54 mL, monomer 63 to 66 mL
Description: In order to analyze the subunit association conditions of LATM2, the molecular weight of each LATM2s was measured by FPLC. Sephacryl S-100HR (manufactured by GE Healthcare) was used as a column, a Gel Filtration Calibration Kit LMW (manufactured by GE Healthcare) was used as molecular weight markers, and 50 mM potassium phosphate containing 500 mM NaCl was used as a buffer.
The positions of the peaks of eluted tetramer were defined to be 44 to 47 mL after injection of WT-TM2 as a control. The peak of an eluted monomer appeared at around 63 to 66 mL and the peak of an eluted dimer appeared at around 51 to 54 mL, from result of loading the molecular weight markers.

Proteinase K = assay: Protease resistance of LATM2 (SDS-PAGE); conditions: 5 μM Proteinase K, 30° C., 15 min, presence or absence of biotin
Description: Throughout the specification, “having protease resistance” refers to that a protein is not enzymatically decomposed or not substantially decomposed by protease treatment. The protease treatment is performed by, for example, proteinase K treatment at 30° C. for 15 min. The term “not enzymatically decomposed” refers to that bands of a tetramer, dimer, and/or monomer of the protein can be clearly detected by SDS-PAGE after enzyme treatment, as in wild-type TM2. That is, a protein not having protease resistance is decomposed into small molecules by protease treatment, and bands of the tetramer, dimer, and monomer are not detected by SDS-PAGE after the protease treatment. […] Accordingly, bands of the tetramer and/or the dimer or monomer generated by dissociation of the tetramer are detected by SDS-PAGE. […] of each of the LATM2s (TM2 S36A, TM2 […], TM2 […], TM2 […], TM2 […], TM2 S36A-[…], TM2 […], and […]) purified by biotin-agarose was subjected to a reaction in 50 mM Tris-HCl (pH 8.0) containing 5 μM Proteinase K and 5 mM CaCl2 at 30° C. for 15 min. […] Then, an SDS buffer was added to each reaction solution, followed by heat treatment at 95° C. for 10 min to terminate the reaction. The resulting sample was subjected to SDS-PAGE, followed by CBB staining.

[2] = Heat resistance of LATM2 by SDS-PAGE; format: physicochemical; conditions: absence of biotin, 20 min in SDS sample buffer
Description: The heat resistance of LATM2s was investigated by SDS-PAGE. Each protein was heat treated at predetermined temperatures for 20 min in an SDS sample buffer in the presence or absence of biotin and was then subjected to SDS-PAGE, followed by CBB staining. The heating temperatures in a biotin-free experimental system were 80° C., 82° C., 84° C., 86° C., 88° C., 90° C., 92° C., and 94° C., and heating temperatures in a biotin-containing experimental system were 86° C., 88° C., 90° C., 92° C., 96° C., 98° C., and 100° C.

[3] = Purification of LATM2 with biotin-agarose; format: binding
Description: Purification with biotin-agarose (manufactured by Sigma-Aldrich Corp.) was performed by the following procedure. After induced expression of 25 mL of a culture solution of E. coli for each LATM2, the E. coli cells were suspended in 1.5 mL of a 100 mM potassium phosphate buffer (pH 7.0), and then sonicated. To the supernatant of the disrupted cells. 400 μL of biotin-agarose was added, which was followed by upside-down mixing for 1 hr. […]
In TM2 S36A-T78A-D116A, the E. coli cells were suspended in 1.5 mL of 50 mM CAPS (pH 12) containing 50 mM NaCl, and then sonicated. To the disrupted cells, 400 μL of biotin-agarose was added, which was followed by upside-down mixing for 1 hr. The column was sufficiently washed with 50 mM CAPS (pH 12) containing 500 mM NaCl, and elution was then performed with 1 mL of PBS (pH 7.4) containing 10 mM biotin.
In TM2 S36A-D116A, the E. coli cells were suspended in 1.5 mL of a 100 mM potassium phosphate buffer (pH 4.0), and then sonicated. To the pupernatant of the disrupted cells, 400 μL of biotin-agarose was added. Washing was performed with a 100 mM potassium phosphate buffer (pH 4) containing 500 mM NaCl, and elution was performed with 1 mL of PBS (pH 7) containing 10 mM biotin. Biotin binding to LATM2 that has been eluted with an excess amount of biotin was removed by dialysis with a 20 mM potassium phosphate buffer overnight.
(§1) The recovery rate in Table 2 was calculated by dividing the amount of LATM2 protein after purification by the amount of LATM2 protein before purification and was expressed by percent by multiplying the quotient by 100. The degree of purification was the ratio of the amount of LATM2 protein to the total amount of proteins in the purified fraction and was expressed by percent by multiplying the ratio by 100. The recovery rates and the degrees of purification in biotin-agarose were the results after binding at pH 7 and elution with an excess amount of biotin.

[4] = Purification of LATM2 with 2-iminobiotin-agarose; format: binding; conditions: for Recovery rate (%): Iminobiotin-agarose, binding at pH 12, elution with 50 mM NH4OAC (pH 4)
Description: LATM2 was purified through a column charged with 2-iminobiotin-agarose (manufactured by Sigma-Aldrich Corp.) in accordance with the method by Hofmann, et al., (1980). IPTG was added to 25 mL of a culture solution of E. coli transformed with each LATM2 in a final concentration of 1 mM to induce expression. The E. coli cells were collected by centrifugation, suspended in 1.5 mL of 50 mM CAPS (pH 12) containing 50 mM NaCl, and then sonicated. To the supernatant of the disrupted cells, 500 μL of 2-iminobiotin-agarose was added, which was then packed in a column. The column was sufficiently washed with 50 mM CAPS (pH 12) containing 500 mM NaCl, and elution was then performed with 50 mM NH4OAC (pH 4).
as §1

[5] = pH-dependence of binding to biotin-agarose
Description: E. coli cells were collected from 25 mL of an E. coli culture solution in which expression TM2 S36A-D116A was induced with 1 mM IPTG, were suspended in 1.5 mL of a 100 mM potassium phosphate buffer ([…]) or 1.5 mL of a 50 mM CAPS (pH 12.0), and then were sonicated. The disrupted cells were centrifugated, and 400 μL of biotin-agarose was added to the supernatant. […] Furthermore, the TM2 S36A-D116A protein was dissociated from the carrier by increasing the pH of the reaction solution to 7.0 or 12.0 and was recovered at an efficiency of 95%.
TM2 S36A-T78A-D116A was also investigated for its pH-dependence. The protein was suspended in a buffer of pH 4.0 or pH 12.0 and was sonicated. […] By utilizing this property, high purity TM2 S36A-T78A-D116A was obtained by binding the protein to biotin-agarose at pH 4.0 and eluting it at pH 7.0 (FIG. 3B).

[6] = Biotin-binding ability of TM2 D40N
[7] = Biotin-agarose, binding at pH 7, recovery with 10 mM biotin

| Molecule | Structure (identified by FPLC) [1] | Sephacryl (mL), elution peak position [1] | decomposition by Proteinase K (Proteinase K) | Tr value (temperature at which ratio monomer:tetramer becomes 1:1) [2] | Recover rate (%) [3, 7] | Recovery rate (%) [4] | binding to 2-iminobiotin-agarose [4] | other results |
| --- | --- | --- | --- | --- | --- | --- | --- | --- |
| TM2 T78A: TM2 in which the 78th threonine was replaced with alanine; SEQ ID NO: 10 (protein, Synthetic TM2 T78A) MSDVQSSLTGTWYNELNSKMELTANKDGTLTGKYLSKVGDVYVPYPLSGRYNLQPPAGQGVALGWAVSWENSKIHSAATWSGQFFSESSPVILTQWLLSSSTARGDVWESTLVGNDSFTKTAPTEQQIAHAQLHCRAPRLK | tetramer | 45.71 mL | hardly decomposed | 88 °C | about 95% | 10% |  | Structure (identified by FPLC) ([1]; listed as T78A): Tetramer; Recover rate (%) ([3]; Biotin-agarose, binding at pH 7, recovery with 10 mM biotin, listed as T78A): 95%; recovery rates compared with WT ([4]; purification with 2-iminobiotin-agarose): inferior to WT |
| WT-TM2: wild-type tamavidin 2, protein comprising the amino acid sequence SEQ ID NO: 2, from Pleurotus cornucopiae (protein, listed as Pleurotus cornucopiae) MSDVQSSLTGTWYNELNSKMELTANKDGTLTGKYLSKVGDVYVPYPLSGRYNLQPPAGQGVALGWAVSWENSKIHSATTWSGQFFSESSPVILTQWLLSSSTARGDVWESTLVGNDSFTKTAPTEQQIAHAQLHCRAPRLK | Tetramer | 46.23 mL | hardly decomposed | 78 °C | 0% | 95% |  | binding to biotin-agarose [3]: efficiently adsorbs to biotin-agarose; elution from biotin-agarose with an excess amount of biotin [3]: not eluted; Note (Biotin-agarose) ([3]; binding at pH 7, recovery with 10 mM biotin, FT = flow-through): not eluted |
| TM2 S36A-D116A: TM2 with 36th serine and 116th aspartic acid replaced with alanine; SEQ ID NO: 20 (protein, Synthetic TM2 S36A-D116A) MSDVQSSLTGTWYNELNSKMELTANKDGTLTGKYLAKVGDVYVPYPLSGRYNLQPPAGQGVALGWAVSWENSKIHSATTWSGQFFSESSPVILTQWLLSSSTARGDVWESTLVGNASFTKTAPTEQQIAHAQLHCRAPRLK | Tetramer | 46.31 mL | approximate a half thereof was decomposed |  | 0% | 0% | did not bind | binding to biotin-agarose ([5]; extract at pH 4.0, pH 5.0, or pH 6.0): efficiently bound to biotin-agarose; binding to biotin-agarose ([5]; extract at pH 7.0 or pH 12.0): did not bind to biotin-agarose at all; recovery efficiency on dissociation from the carrier ([5]; increasing the pH to 7.0 or 12.0): 95%; recovery rate by binding at pH 4, elution at pH 7 (without biotin) ([3]; Biotin-agarose): 95%; recovery rate by binding at pH 4, elution at pH 7 (without biotin) ([3]; Biotin-agarose, listed as S36AD116A): recovery rate: 95% |
| TM2 D40N: TM2 having modification of the 40th aspartic acid to asparagine (protein) MSDVQSSLTGTWYNELNSKMELTANKDGTLTGKYLSKVGNVYVPYPLSGRYNLQPPAGQGVALGWAVSWENSKIHSATTWSGQFFSESSPVILTQWLLSSSTARGDVWESTLVGNDSFTKTAPTEQQIAHAQLHCRAPRLK |  |  |  |  |  |  |  | biotin-binding ability relative to TM2 [6]: increases |
| TM2 S36A-T78A-D116A: TM2 with 36th serine, 78th threonine and 116th aspartic acid replaced with alanine; SEQ ID NO: 8 (protein, Synthetic TM2 S36A-T78A-D116A) MSDVQSSLTGTWYNELNSKMELTANKDGTLTGKYLAKVGDVYVPYPLSGRYNLQPPAGQGVALGWAVSWENSKIHSAATWSGQFFSESSPVILTQWLLSSSTARGDVWESTLVGNASFTKTAPTEQQIAHAQLHCRAPRLK | dimer | 51.06 mL | hardly decomposed |  | 0% | 0% | did not bind | Structure (identified by FPLC) ([1]; listed as S36AT78AD116A): Dimer; binding to biotin-agarose ([5]; pH 4.0 or pH 12.0): confirm its binding to biotin-agarose; binding to biotin-agarose ([5]; pH 7.0): did not bind to biotin-agarose at all; recovery rate by binding at pH 4 or 12, elution at pH 7 (without biotin) ([3]; Biotin-agarose): recovery rate: 95% |
